Measured values: US20220144922A1 (Adimab, published 2022)

B1: ADI-15593 (antibody, V domains shown)
VH: QVQLVQSGGGLVRPGGSLRLSCAASGFMFSTYSMNWLRTVPGKGLEWVSSISGSSSHIYYADSVKGRFTISRDNTKNSLYLQMNSLRPEDTALYYCARYFGDYSGLGNYYYYGMDVWGQGTTVTVSS
VL: DIVMTQSPVSLPVTPGEPASISCRSSQSLLHSNGNNYLDWYLQRPGQSPQLLIYLGSNRASGVPDRFSGSGSGTDFTLRISRVEAEDVGVYYCMQALQTPRFGGGTKVEIK
notes: IgG; also called Antibody Number 160
B2: ADI-15614 (antibody, V domains shown)
VH: EVQLLESGGGLVKPGGSLRLSCAASGFTISGYNMFWVRQPPGKGLEWVSSITAGSSYLNYADSVKGRFIVSRDNAKNSLYLQMNSLRAEDTAVYFCARAPLLPAMMDLWGQGTTVTVSS
VL: QSVLTQPPSVSGAPGQRVTISCTGSSSNIGAGYDVHWYQQLPGTAPKLLIYTNNNRPSGVPDRFSGSKSGTSASLAITGLQAEDEADYYCQSYDRSLNGYVFGTGTKLTVL
notes: IgG
B3: ADI-15556 (antibody, V domains shown)
VH: QVQLVQSGAEVKKPGSSVKVSCKASGGNVNIYGISWVRQAPGQGLEWMGGIIPIYDTTKYAQKFQDRVTITADKSTSTAYMELSSLRSEDTAVYFCARDLDYDILTGYSVNYYYYGMDVWGQGTTVTVSS
VL: QSVLTQPPSVSGAPGQRVTISCTGSSSNIGAGYDVHWYQQLPGTAPKLLIYGNINRPSGVPDRFSGSKSGTSASLAITGLQAEDEADYYCQSCDSSLSGWVFGGGTKLTIL
notes: IgG
B4: ADI-15623 (antibody, V domains shown)
VH: EVQLLESGGGLVKPGGSLRLSCAASGFTIGGYNMFWVRQPPGKGLEWVSSITAGSSYLNYADSVKGRFIVSRDNAKNSLYLQMNSLRAEDTAVYFCARAPLLPAMMDLWGQGTTVTVSS
VL: QSVVTQPPSVSGAPGQRVTISCTGSSSNIGAGYDVHWYQQLPGTAPKLLIYTNNNRPSGVPDRFSGSKSGTSASLAITGLQAEDEADYYCQSYDRSLNGYVFGTGTQLTVL
notes: IgG; also called Antibody Number 188
B5: ADI-15601 (antibody, V domains shown)
VH: EVQLLETGGGLVKPGGSLRLSCEATGFTFSDFAMSWVRQAPGKGLEWVSLIKSSDYPYYADSVRGRFTISRDNSKNTLYLRMDNLRADDTAVYYCAKDADFWSGEAYNGGYNFDSWGQGTLVTVSS
VL: EIVLTQSPATLSVSPGERATLSCRASQSIGTNLAWYQQKPGQAPRLLIFGASTRATGIPARFTGSGSGTEFTLTIGSLQSEDFAVYYCQQYNQWPPITFGGGTKVEIK
notes: IgG
B6: ADI-15599 (antibody, V domains shown)
VH: EVQLLESGGGLVQPGRSLRLSCSGSGFTFGDYALSWVRQAPGKGLEWVGFIRSKAYGGTTEYAASVKGRFTISRDDSKSIAYLQMNSLKTEDTAVYYCTMAVVVPGATDAFDIWGQGTMVTVSS
VL: NFMLTQPHSVSESPGKTVTISCTRSSGSIASDYVQWFQQRPGSSPATVIYQDNQRPSGVPDRFSGSIDTSSNSASLTISGLKTEDEADYYCHSYDSSNPWVFGGGTKLTVL
notes: IgG; also called Antibody Number 165
B7: ADI-15605 (antibody, V domains shown)
VH: QVQLVQSGPEVKKPGESLKISCKGSGYTFTTYWIGWVRQRPGKGLEWMGIIHPGDSDTRYSPSLQGQVTISVDKSINTAYLQWRSLKASDTGMYYCARFEYGDFGNDFWGQGTLVTVSS
VL: NFMLTQPHSVSESPGKTVTISCSRSSGSIANNYVQWYQQRPGSSPTTVIYEDNQRPSGVPDRFSGSIDSSSNSASLTISGLKTEDEADYYCQSYDSSNHRVFGGGTKLTVL
notes: IgG
B8: ADI-15611 (antibody, V domains shown)
VH: QVQLVESGAEVKKPGSSVKVSCKASGGTFGRDSISWVRQAPGQGLEWMGGINPIFHTSHYAQKFQGRVTITADESTSTAYMELGNLRSEDTAMYYCARVPPPRGHCESTSCLWGTYFAFWGQGTLVTVSS
VL: ETTLTQSPATLSLSPGERATLSCRASQRVRSYLAWYQQKPGQAPRLLIYDASIRATGIPARFSGSGSGADFTLTISSLEPEDFAVYYCQLRDYWPPTWTFGQGTKVEIK
notes: IgG
B9: ADI-15647 (antibody, V domains shown)
VH: QVQLVQSGAEVKKPGSSVRVSCEASGGTFSTYAISWVRQAPGLGLEWMGGIHPISGTANYAQSFQDRLTITVDKSTSTAYMDLSSLRSEDTAIYYCARVGLGRTWIYDTMGYLDYWGQGTLVTVSS
VL: EIVLTQSPATLSLSPGERVTLSCRASQSVNDYLAWYQQKPGQAPRLLIYDASNRATGIPARFSGSGSGTDFTLTISSLEPEDFAVYYCQHRTNWPSLTFGGGTKVEIK
B10: ADI-15657 (antibody, V domains shown)
VH: QVQLVQSGTEVKKPGSSVKVSCKASGGTFSSYAISWVRQAPGQGLEWMGGIHPTSGPANYAQKFQDRVTITVDKSTSTVYMDLSSLRSEDTAVYYCARVGVGRTWIYDTMGYLDFWGQGTLVTVSS
VL: EIVMTQSPATLSLSPGERATLSCRASQSVSDYLAWYQQKPGQAPRLLIYDASNRATGIPARFSGSGSGTDFTLTITSLEPEDFAVYYCQHRSDWPSLTFGGGTKLEIK
B11: ADI-15665 (antibody, V domains shown)
VH: QVQLVQSGPEVKRPGSSVKVSCKASGDTFNNYAISWVRQAPGQGLEWMGGIHPTTATPNYAQKFQGRVVISADKSTSTAYLDLSRLRSEDTAMYYCARVGVGRTWVYDIMGYLDYWGQGTLVTVSS
VL: EIVLTQSPATLSLSPGERATLSCRASQSVSDYLAWYQQRPGQAPRLLIYDASTRATGIPDRFSGGGSGTDFTLTISSLEPEDFAVYYCQHRNNWPSLTFGGGTKVEIK
B12: ADI-15600 (antibody, V domains shown)
VH: EVQLVESGGGLIQPGGSLRLSCAVSGFSVSSNYISWVRQPPGKGLEWVSVSYSSGVTDYADSVKGRFTTSRDNSKNTLYLQMNSLRGEDTAVYYCARELVPNFYESHGYFSVWGQGTLVTVSS
VL: DIVMTQSPGTLSLSPGERATLSCRASQRVDSSYLAWYQQKPGQAPRLLIYGGSSRATGIPDRFSGSGSGTDFTLTISRLEPEDFALYYCQQYGFSQTFGQGTKVEIK
notes: IgG; also called Antibody Number 166
B13: ADI-15588 (antibody, V domains shown)
VH: EVQLVESGPGLVKPSETLSLICRVFGGSVRRGDYNWNWIRQPPGKGLEWIGYIDYSGTTKYNPSLKSRVTISEDTSRNQFSLELRSVTAADTAMYYCARDVGSTPYNYYGMDVWGQGTTVTVSS
VL: EIVLTQSPGTLSLSPGERATLSCRASQTIKNNYLAWYQQKPGQAPRLLMYGVSSRPTGIPDRFSGSGSGTDFSLTIDRLEPEDFAVYYCQQFGRSPELTFGGGTKVEIK
notes: IgG; also called Antibody Number 155
B14: ADI-15582 (antibody, V domains shown)
VH: QVQLVQSGGEVKKPGASVKVSCKASGYTFISYGITWVRQAPGQGPEWMGWISPYNGDTNYAQKLQGRVTMTTDTSTTTAYMELRSLRSDDTAIYYCARRYDILTGGGWFDSWGQGTLVTVSS
VL: DIVMTQSPSSLSASVGDRVTINCRASQSIISYLNWYQQKPGKAPELLIYAASSLQSGVPSRFSGSGSGTEFTLTISSLQPEDFATYYCQQSYSTPLSFGPGTKVEIK
notes: IgG

Key:
[1] = biological target: T1, postfusion RSV F ectodomain (F ΔFP), subtype A (respiratory syncytial virus subtype A, UniProt P03420 26-109; P03420 147-524); experiment: BLI, IgG on sensor
T1 construct: extracellular domain; also called Postfusion subtype A

[2] = biological target: T2, prefusion-stabilized RSV F ectodomain (DS-Cav1), subtype B (respiratory syncytial virus subtype B); experiment: BLI, IgG on sensor
T2 construct: extracellular domain; also called Prefusion subtype B

[3] = biological target: T3, postfusion RSV F ectodomain, subtype B (respiratory syncytial virus subtype B); experiment: BLI, IgG on sensor
T3 construct: extracellular domain; also called Postfusion subtype B

[4] = biological target: T4, RSV F protein of subtype A strain A2, on virus (respiratory syncytial virus subtype A …, UniProt P03420 26-574); experiment: cell-based or functional assay
[5] = biological target: RSV F protein of subtype B strain 18537, on virus (respiratory syncytial virus subtype B …, UniProt P13843 26-574); experiment: cell-based or functional assay
[6] = biological target: T4, RSV F protein of subtype A strain A2, …; experiment: cell-based or functional assay; remark: listed apart in the source
[7] = biological target: HMPV F protein (NL/1/00, A1 sublineage), on virus (human metapneumovirus); experiment: cell-based or functional assay

| Binder | Kd [1] [nM] | Kd [2] [nM] | Kd [3] [nM] | Neut IC50 (ug/ml) subtype A [4] [µg/mL] | Neut IC50 (ug/ml) subtype B [5] [µg/mL] | RSV-A2 IC50 [6] [µg/mL] | HMPV-A1 IC50 [7] [µg/mL] |
| --- | --- | --- | --- | --- | --- | --- | --- |
| B1 | 0.507 | 3.95 | 0.761 | > 10 | > 10 | – | – |
| B2 | – | 0.466 | – | 0.027 | 0.059 | 0.03 | 0.22 |
| B3 | 0.247 | 2.2 | 0.19 | 0.055 | 0.081 | – | – |
| B4 | – | 0.435 | – | 0.054 | 0.108 | 0.05 | 0.37 |
| B5 | 0.207 | 0.329 | 0.193 | 0.046 | 0.084 | – | – |
| B6 | 1.23 | 0.246 | 0.652 | 0.11 | 0.378 | – | – |
| B7 | 0.163 | 3.49 | 0.171 | > 10 | > 10 | – | – |
| B8 | 0.626 | 4.34 | 0.609 | 0.15 | 0.432 | – | – |
| B9 | – | – | – | > 10 | > 10 | > 25 | 20.3 |
| B10 | – | – | – | > 10 | > 10 | > 25 | 11.9 |
| B11 | – | – | – | 12.7 | 6.25 | 12.7 | 13.5 |
| B12 | 0.162 | 1.42 | 0.148 | 1.31 | 0.958 | – | – |
| B13 | 0.353 | 0.427 | 0.953 | 0.094 | 0.234 | – | – |
| B14 | 0.385 | 2.32 | 0.295 | 2.22 | 6.74 | – | – |
